The text below walks through data of publication PMC5698441 (Nature Communications, 2017).

The experiment deals with T1, biotinylated CaM (UniProt P0DP23 1-149, biotin (EZ link NHS Biotin, two-fold molar excess)).
T1 construct: calmodulin, biotin-labelled; also called biotin-CaM; biotin-labeled CaM; source: purified CaM labelled with EZ link NHS Biotin, separated from free biotin by SEC
Nature of the experiment: AlphaScreen or HTRF; competition: WT or mutant 20-mer peptides AKAP79 77-96 added to biotin-CaM (10 nM) and GST-AKAP79 (1-153); emission relative to untreated; peptide concentration not given. The following applies: both partners purified. In general terms: Bead proximity is the source of the signal in Alpha formats.

B1: 20-mer AKAP79 (77–96) V86A (peptide)
peptide: GAWASLKRLATRRKRSESSK
notes: AKAP79 residues 77-96 with V86A; also called V86A peptide; source: synthetic peptide (Sigma PEPscreen)
As to B1, the “alphascreen emission relative to untreated samples” value is 0.17 ± 0.04 relative to untreated.
